From US11161908 (CITY OF HOPE, dated 2021)
Residue numbers refer to the chain shown, from its start.

B1: chimeric anti-human BAFF-R antibody C55 (Clone 55 variable regions, human IgG1 constant regions) (antibody, V domains shown)
VH: QVTLKESGPGILKPSQTLSLTCSFSGFSLSTSGMGVGWIRQPSGKGLEWLAHIWWDDDKYYNSSLKSHLTISKDTSRNQVFLKITSVDTADTATYYCARSFGYGLDYWGQGTTLTVSS
VL: DIQMTQTTSSLSASLGDRVTISCSASQDISNYLNWYQQKPDGTVKLLIYYTSSLHSGVPSRFSGSGSGTDYSLTISSLEPEDIATYYCHQFSELPWTFGGGTKLEIK
modifications: Conjugated to Alexa Fluor 488 in FIG. 1D (sites not given)
notes: also called chimeric C55; Chi55
B2: mouse monoclonal antibody from hybridoma Clone 55 (antibody, V domains shown)
VH: B1 VH
VL: B1 VL
notes: also called mouse mAb C55
B3: humanized C90 variant HC1 + LC3 (antibody, V domains shown)
VH: QVQLQESGPGLVKPSQTLSLTCTVSGDSITSGYWNWIRQHPGKGLEYIGYISYSGSTYYNPSLKSRVTISRDTSKNQFSLKLSSVTAADTAVYYCASPNYPFYAMDYWGQGTLVTVSS
VL: DIVMTQSPSSLSASVGDRVTITCRASESVDNYGISFMNWFQQKPGKAPKLLIYAASNLGSGVPSRFSGSGSGTDFTLTISSLQPEDFATYYCQQSKEVPWTFGQGTKVEIKR
notes: also called Humanized HC1 + LC3; Hu90 HC-1 with Hu90 LC-3
B4: humanized C90 variant HC2 + LC1 (antibody, V domains shown)
VH: B3 VH with Q1E, F78Y
VL: EIVLTQSPATLSLSPGERATLSCRASESVDNYGISFLNWFQQKPGQAPRLLIYAASNRATGIPARFSGSGSGTDFTLTISSLEPEDFAVYYCQQSKEVPWTFGGGTKVEIKR
notes: also called Humanized HC2 + LC1; Hu90 HC-2 with Hu90 LC-1
B5: humanized C90 variant HC3 + LC1 (antibody, V domains shown)
VH: B3 VH with Q1E, Q16E, T23S, H40P, F78Y, K81R, V92L, L113R
VL: B4 VL
notes: also called Humanized HC3 + LC1; Hu90 HC-3 with Hu90 LC-1
B6: humanized C90 variant HC3 + LC3 (antibody, V domains shown)
VH: B3 VH with Q1E, Q16E, T23S, H40P, F78Y, K81R, V92L, L113R
VL: B3 VL
notes: also called Humanized HC3 + LC3; Hu90 HC-3 with Hu90 LC-3
B7: humanized C90 variant HC3 + LC2 (antibody, V domains shown)
VH: B3 VH with Q1E, Q16E, T23S, H40P, F78Y, K81R, V92L, L113R
VL: B4 VL with E1D, L37M
notes: also called Humanized HC3 + LC2; Hu90 HC-3 with Hu90 LC-2
B8: humanized C90 variant HC1 + LC1 (antibody, V domains shown)
VH: B3 VH
VL: B4 VL
notes: also called Humanized HC1 + LC1; Hu90 HC-1 with Hu90 LC-1
B9: humanized C90 variant HC1 + LC2 (antibody, V domains shown)
VH: B3 VH
VL: B4 VL with E1D, L37M
notes: also called Humanized HC1 + LC2; Hu90 HC-1 with Hu90 LC-2
B10: humanized C90 variant HC2 + LC2 (antibody, V domains shown)
VH: B3 VH with Q1E, F78Y
VL: B4 VL with E1D, L37M
notes: also called Hu90 HC-2 with Hu90 LC-2
B11: chimeric anti-human BAFF-R antibody C90 (Clone 90 variable regions, human IgG1 constant regions) (antibody, V domains shown)
VH: EVQLQESGPSLVKPSQTLSLTCSVTGDSITSGYWNWIRKFPGNKLEYMGYISYSGSTYYNPSLKSRISITRDTSKNQYYLQLNSVTPEDTATYYCASPNYPFYAMDYWGQGTSVTVSS
VL: not shown
notes: also called chimeric C90; Chi90

How the values were obtained:
[1] = molecular target: T1, human BAFF-R, endogenous, on human B-cell lines, primary lymphoma cells and normal B cells (human, UniProt Q96RJ3 1-184); experiment: flow cytometry, Alexa Fluor 488-conjugated chimeric antibody on primary NHL patient samples
T1 construct: whole, on cells; also called BAFF-R-positive human MCL lines (Mino, JeKo-1, REC-1, JVM-13, Z-138); NHL lines JeKo-1, SU-DHL-6, Raji, RL

[2] = molecular target: T1, human BAFF-R, endogenous, on human …; experiment: flow cytometry, hybridoma supernatant at 1/10, 1/50 and 1/200 with anti-mouse IgG-APC on Mino; 293T as negative control
Text: Figure 8: FIG. 8 are flow cytometry results showing verification that selected hybridoma clones bind MCL cells. Binding of hybridoma Clone 53, 55, 67, and 90 supernatants (1/10, 1/50, and 1/200 dilutions) to Mino (mantle cell lymphoma) and 293T (negative control) cell lines assessed by flow cytometry performed with anti-mouse IgG-APC.

[3] = molecular target: T2, commercial, recombinant extracellular domain of human BAFF-R (human, UniProt Q96RJ3 1-78); experiment: Biacore analysis; antibody as loading sample, recombinant human BAFF-R ECD as sample
T2 construct: extracellular domain
Procedure: The chimeric anti-BAFF-R antibody C90 was humanized with several variants. The humanization process took into consideration and analysis of the variable region and specifically the CDRs of the chimeric antibody. From there, three variants for each heavy and light chain was developed with varying degrees of human-likeness ranging from 1 the most human to 3 the most conservative to the chimeric. The variants were combined to produce 9 variants. Biacore analysis was performed on each variant as well as the chimeric parental C90 to determine their equilibrium dissociation constant K_D. The antigen was commercial, recombinant extracellular domain of human BAFF-R.

Row | Binder | binding result [1] | binding result [2] | Kd [3] [nM] | koff [3] [s⁻¹] | kon [3] [M⁻¹ s⁻¹]
1 | B1 | binds |  |  |  | 
2 | B2 |  | binds |  |  | 
3 | B3 |  |  | 5 | 0.0021 | 410000
4 | B4 |  |  | 2.6 | 0.002 | 770000
5 | B5 |  |  | 3.8 | 0.0031 | 820000
6 | B6 |  |  | 3.4 | 0.0023 | 680000
7 | B7 |  |  | 3.1 | 0.0037 | 1.2e+06
8 | B8 |  |  | 4 | 0.0024 | 610000
9 | B9 |  |  | 3.7 | 0.0023 | 620000
10 | B10 |  |  | 3.6 | 0.0022 | 610000
11 | B11 |  |  |  | 0.002 | 990000
